Data from paper PMC3855764, “Oct4/Sox2 Binding Sites Contribute to Maintaining Hypomethylation of the Maternal Igf2/H19 Imprinting Control Region”.

How the values were obtained:
Conditions in all cases: protein: recombinant
Oct4 (recombinant) [1] = biological target: T1, Oct4 (recombinant) (UniProt P20263 1-352); assay: EMSA; Oct4 binding not altered by Sox mutation; 10 mM Tris pH 8.0, 2 mM MgCl (so in the source), 100 mM KCl, 1.25 mM DTT, 5% glycerol, 0.0625% BSA, 19 ug/ml dGdC, 25 fmol probe in 16 ul, 10 min room temperature; 4% PAGE 0.25X TBE
Oct4 (recombinant) [2] = biological target: T1, Oct4 (recombinant); assay: EMSA; bound both elements equally well; 10 mM Tris pH 8.0, 2 mM MgCl (so in the source), 100 mM KCl, 1.25 mM DTT, 5% glycerol, 0.0625% BSA, 19 ug/ml dGdC, 25 fmol probe in 16 ul, 10 min room temperature; 4% PAGE 0.25X TBE
Sox2 (recombinant) [3] = biological target: T2, Sox2 (recombinant) (UniProt P48432 1-319); assay: EMSA; Sox2 alone; 10 mM Tris pH 8.0, 2 mM MgCl (so in the source), 100 mM KCl, 1.25 mM DTT, 5% glycerol, 0.0625% BSA, 19 ug/ml dGdC, 25 fmol probe in 16 ul, 10 min room temperature; 4% PAGE 0.25X TBE
Sox2 (recombinant) [4] = biological target: T2, Sox2 (recombinant); assay: EMSA; 10 mM Tris pH 8.0, 2 mM MgCl (so in the source), 100 mM KCl, 1.25 mM DTT, 5% glycerol, 0.0625% BSA, 19 ug/ml dGdC, 25 fmol probe in 16 ul, 10 min room temperature; 4% PAGE 0.25X TBE
Sox2 (recombinant) [5] = biological target: T2, Sox2 (recombinant); assay: EMSA; almost equal to WT; likely via octamer; 10 mM Tris pH 8.0, 2 mM MgCl (so in the source), 100 mM KCl, 1.25 mM DTT, 5% glycerol, 0.0625% BSA, 19 ug/ml dGdC, 25 fmol probe in 16 ul, 10 min room temperature; 4% PAGE 0.25X TBE

T2 sequence (P48432 whole entry): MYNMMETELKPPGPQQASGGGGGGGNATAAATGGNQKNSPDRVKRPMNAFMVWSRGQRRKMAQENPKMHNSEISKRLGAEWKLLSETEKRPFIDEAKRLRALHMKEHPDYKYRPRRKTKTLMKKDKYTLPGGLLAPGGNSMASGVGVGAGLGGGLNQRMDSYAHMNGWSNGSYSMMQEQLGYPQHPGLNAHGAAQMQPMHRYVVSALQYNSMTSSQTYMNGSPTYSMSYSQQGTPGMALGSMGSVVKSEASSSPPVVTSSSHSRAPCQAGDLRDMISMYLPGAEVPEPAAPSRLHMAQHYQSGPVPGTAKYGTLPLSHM
T1 sequence (P20263 whole entry): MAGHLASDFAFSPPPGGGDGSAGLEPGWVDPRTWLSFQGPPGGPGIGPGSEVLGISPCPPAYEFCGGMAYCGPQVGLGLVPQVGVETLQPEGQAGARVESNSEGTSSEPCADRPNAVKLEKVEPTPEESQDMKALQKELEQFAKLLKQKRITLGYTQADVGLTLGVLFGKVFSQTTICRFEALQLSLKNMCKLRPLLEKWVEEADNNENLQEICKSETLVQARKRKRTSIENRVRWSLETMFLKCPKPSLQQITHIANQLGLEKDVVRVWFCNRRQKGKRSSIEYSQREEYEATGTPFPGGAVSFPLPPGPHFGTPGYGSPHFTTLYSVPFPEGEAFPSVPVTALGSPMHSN

Row | Binder | binding result (Oct4 (recombinant) [1]) | binding result (Oct4 (recombinant) [2]) | other results
1 | mSB (Sox mutant Sox-OctB) (dsDNA) DNA 1: TTGGGGAACGAAGATGCTAATGATCTCCGGCT DNA 2: AGCCGGAGATCATTAGCATCTTCGTTCCCCAA | binds |  | 
2 | ICR Sox-OctB (dsDNA) DNA 1: TTGGGGCGTTCAGATGCTAATGATCTCCGGCT DNA 2: AGCCGGAGATCATTAGCATCTGAACGCCCCAA |  | binds | 
3 | ICR Sox-OctA (dsDNA) DNA 1: CTGGTGATTTGCGCTTTCGTATTCTAATTGGGGAC DNA 2: GTCCCCAATTAGAATACGAAAGCGCAAATCACCAG |  | binds | binding result (Sox2 (recombinant) [3]): binds
4 | ICR SoxC (dsDNA) DNA 1: GCTCAGGGCTGCAAACAATTCTGAAACTGCATTCTC DNA 2: GAGAATGCAGTTTCAGAATTGTTTGCAGCCCTGAGC |  |  | binding result (Sox2 (recombinant) [4]): binds
5 | mSA (Sox mutant Sox-OctA) (dsDNA) DNA 1: CTAAGCGCTACGTCCTAGGTATTCTAATTGGGGAC DNA 2: GTCCCCAATTAGAATACCTAGGACGTAGCGCTTAG | binds |  | binding result (Sox2 (recombinant) [5]): binds
